Patent publication US20240034786A1 (WUXI BIOLOGICS IRELAND, published 2024)

Experiments:
[1] = target: T1, Human P-cadherin on cells (human, UniProt P22223 108-829); assay: FACS on DU-145 cells
T1 construct: whole, on cells; Endogenous P-cadherin on tumour cell lines; also called hPro1
Procedure: (§1) Binding of the test antibodies to P-cadherin expressed on cells was determined by flow cytometry analysis. […] 1×10⁵ cells/well (100 μL) were added to each well of a 96-well U-plate (Corning, #3799) and centrifuged at 1500 rpm (Eppendorf, #5810R) for 5 minutes before removing the supernatant. Antibodies serially diluted in 1% BSA/1×PBS (Ca+/Mg+) were added at 100 μL/well to the pelleted cells and incubated at 4° C. for 1 hour. Anon-related hIgG1 antibody was used as an isotype control. Cells were washed two times with 180 μL/well of 1% BSA/1×PBS (Ca+/Mg+) by centrifugation at 1500 rpm for 5 minutes at 4° C. Pelleted cells were resuspended in 100 μL/well Alexa647 conjugated Goat anti-human IgG Fc (Jackson, #109-605-098) 1:500 diluted in 1% BSA/1×PBS (Ca+/Mg+) for 30 minutes at 4° C. in the dark. Cells were then washed two times as described above. After the final wash, cells were resuspended in 100 μL 1% BSA/1×PBS (Ca+/Mg+) and fluorescence values were measured with a FACS Canto II cytometer (BD Biosciences). The amount of cell surface bound anti-P-cadherin antibody was assessed by measuring the mean fluorescence (MFI). The FACS raw data were analyzed by FlowJo software, wells containing no antibody or secondary antibody only were used to establish background fluorescence. Binding EC50 values were obtained by the four-parameter non-linear regression analysis using GraphPad Prism6 software.

[2] = target: T1, Human P-cadherin on cells; assay: FACS on HCT-116 cells
Procedure: as §1
Binding of the antibodies to human P-cadherin expressed on cells was determined by flow cytometry analysis.

[3] = target: T1, Human P-cadherin on cells; assay: FACS on NCI-H1650 cells
Procedure: as §1

[4] = target: T2, W319-hPro1.D123.ECD.hFc (WT) (human, UniProt P22223 108-461); assay: direct ELISA on coated antigen
T2 construct: range 108-461; also called Human P-cadherin ECD domain 1&2&3; domain 1-3; not shown: human Fc by the code hFc
Procedure: (§2) The binding of the antibodies to W319-hPro1.D1.ECD.hFc, W319-hPro1.D12.ECD.hFc (WT), W319-hPro1.D123.ECD.hFc (WT), W319-hPro1.D1234.ECD.hFc (WT) (2.5) and W319-hPro1.ECD.hFc (WT)-P3 were tested by a direct protein binding ELISA. 96-well high protein binding ELISA plates (Nunc MaxiSorp, ThermoFisher, Cat #: 442404) were coated overnight at 4° C. with 1 μg/mL antigens in Carbonate-bicarbonate buffer (20 mM Na2CO3, 180 mM NaHCO3, pH=9.2). All wells were washed three time with 300 μL per well of PBS/0.5‰ Tween-20 (v/v) and all the following wash steps in the assay were performed the same. The wells were then blocked for one hour with 2% BSA (Bovogen, Cat #: BSAS)/1×PBS (Ca+/Mg+) (Gibco, #14040-117) and washed three times. For the primary antibody binding, the testing antibodies including the BMKs and our antibodies serially diluted in 2% BSA/1×PBS (Ca+/Mg+) were added to the relevant wells and incubated at room temperature for two hours. Plates were washed three times prior to the addition of 100 μL of secondary antibody Goat anti-Human-IgG-F(ab′)2-HRP (Jackson, Cat #: 109-035-097) 5000-fold diluted in 2% BSA/1×PBS (Ca+/Mg+). Plates were incubated at room temperature for one hour, followed by six washes as describe above.
(§3) For the binding detection, 100 μL Tetramethylbenzidine (TMB) Substrate solution (Invitrogen, Cat #: 002023) was added to all wells for 10 minutes before stopping the reaction with 100 μL 2M HCl. The extent of the testing Abs binding to W319-hPro1.D1.ECD.hFc, W319-hPro1.D12.ECD.hFc (WT), W319-hPro1.D123.ECD.hFc (WT), W319-hPro1.D1234.ECD.hFc (WT) and W319-hPro1.ECD.hFc (WT)-P3 were determined by measuring the OD450 absorbance using the SpectraMax® M5e microplate reader. Wherever appropriate, binding EC50 values were obtained by the four-parameter non-linear regression analysis using GraphPad Prism 5 software.
(§4) Its binding epitope is different from BMKs.

[5] = target: T3, W319-hPro1.D1234.ECD.hFc (WT) (human, UniProt P22223 108-550); assay: direct ELISA on coated antigen
T3 construct: range 108-550; also called Human P-cadherin ECD domain 1&2&3&4; domain 1-4; not shown: human Fc by the code hFc
Procedure: as §2, §3, §4

[6] = target: T4, W319-hPro1.ECD.hFc (WT)-P3 (human, UniProt P22223 108-654); assay: direct ELISA on coated antigen
T4 construct: range 108-654; also called Human P-cadherin ECD; not shown: human Fc by the code hFc
Procedure: as §2, §3, §4

[7] = target: T1, Human P-cadherin on cells; assay: FACS on HCT-116 cells, antibody kept in human serum at 37 C, Day 1
Procedure: (§5) The antibody stability in human serum was tested by FACS. Briefly, human serum was freshly isolated by centrifuging the fresh blood twice at 4000 rpm for 10 minutes. […] As a control, antibodies serum mix was frozen immediately without 37° C. incubation. For the FACS analysis, the samples from different time points were free-thawed simultaneously at 4° C. […] The cells were washed twice with 1% BSA/1×PBS (Ca+/Mg+). Alexa647 conjugated Goat anti-human IgG Fc (Jackson, #109-605-098) 1:500 diluted in 1% BSA/1×PBS (Ca+/Mg+) were added to the cells and incubated at 4° C. for 30 minutes. Cells were washed twice in the same buffer and the mean fluorescence (MFI) of stained cells was measured using a FACS Canto II cytometer (BD Biosciences) and analyzed by FlowJo. Wells containing no antibody or secondary antibody only were used to establish background fluorescence. Four-parameter non-linear regression analysis was used to obtain EC50 values for cell binding using GraphPad Prism6 software.

[8] = target: T1, Human P-cadherin on cells; assay: FACS on HCT-116 cells, antibody kept in human serum at 37 C, Day 14
Procedure: as §5

T1 sequence (P22223 108-829): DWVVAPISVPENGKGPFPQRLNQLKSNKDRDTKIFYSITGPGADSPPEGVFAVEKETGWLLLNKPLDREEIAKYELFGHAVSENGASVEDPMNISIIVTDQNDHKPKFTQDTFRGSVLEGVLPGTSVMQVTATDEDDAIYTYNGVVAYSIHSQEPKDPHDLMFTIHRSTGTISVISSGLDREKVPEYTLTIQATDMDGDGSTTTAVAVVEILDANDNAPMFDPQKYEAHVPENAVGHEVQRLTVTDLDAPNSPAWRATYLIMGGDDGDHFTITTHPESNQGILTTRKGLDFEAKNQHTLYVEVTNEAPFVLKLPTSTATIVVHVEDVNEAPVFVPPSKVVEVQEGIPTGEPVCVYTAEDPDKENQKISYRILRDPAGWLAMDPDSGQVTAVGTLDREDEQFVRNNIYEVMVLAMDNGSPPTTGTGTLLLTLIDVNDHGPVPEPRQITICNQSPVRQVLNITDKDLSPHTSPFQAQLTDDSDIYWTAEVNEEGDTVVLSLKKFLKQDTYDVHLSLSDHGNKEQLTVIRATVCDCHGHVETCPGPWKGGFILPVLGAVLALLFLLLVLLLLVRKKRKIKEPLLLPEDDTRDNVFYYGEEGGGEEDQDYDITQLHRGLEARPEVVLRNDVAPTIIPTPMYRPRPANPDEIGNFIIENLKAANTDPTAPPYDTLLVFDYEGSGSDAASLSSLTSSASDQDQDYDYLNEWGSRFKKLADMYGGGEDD
T4 sequence (P22223 108-654): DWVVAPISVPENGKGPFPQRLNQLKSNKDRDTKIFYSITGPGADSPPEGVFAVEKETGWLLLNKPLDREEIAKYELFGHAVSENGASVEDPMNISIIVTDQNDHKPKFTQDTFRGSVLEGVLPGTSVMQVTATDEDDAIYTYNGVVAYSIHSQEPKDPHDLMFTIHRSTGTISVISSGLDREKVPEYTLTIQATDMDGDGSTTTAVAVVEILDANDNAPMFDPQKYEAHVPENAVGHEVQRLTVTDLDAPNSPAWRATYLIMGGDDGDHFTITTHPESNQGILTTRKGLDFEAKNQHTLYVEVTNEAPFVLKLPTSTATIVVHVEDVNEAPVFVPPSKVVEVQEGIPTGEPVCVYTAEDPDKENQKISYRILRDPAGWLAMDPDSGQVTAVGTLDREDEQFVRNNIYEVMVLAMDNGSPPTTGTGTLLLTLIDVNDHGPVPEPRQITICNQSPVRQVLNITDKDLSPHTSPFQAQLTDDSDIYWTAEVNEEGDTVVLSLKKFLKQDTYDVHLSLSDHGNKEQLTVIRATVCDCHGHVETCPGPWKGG
T3 sequence (P22223 108-550): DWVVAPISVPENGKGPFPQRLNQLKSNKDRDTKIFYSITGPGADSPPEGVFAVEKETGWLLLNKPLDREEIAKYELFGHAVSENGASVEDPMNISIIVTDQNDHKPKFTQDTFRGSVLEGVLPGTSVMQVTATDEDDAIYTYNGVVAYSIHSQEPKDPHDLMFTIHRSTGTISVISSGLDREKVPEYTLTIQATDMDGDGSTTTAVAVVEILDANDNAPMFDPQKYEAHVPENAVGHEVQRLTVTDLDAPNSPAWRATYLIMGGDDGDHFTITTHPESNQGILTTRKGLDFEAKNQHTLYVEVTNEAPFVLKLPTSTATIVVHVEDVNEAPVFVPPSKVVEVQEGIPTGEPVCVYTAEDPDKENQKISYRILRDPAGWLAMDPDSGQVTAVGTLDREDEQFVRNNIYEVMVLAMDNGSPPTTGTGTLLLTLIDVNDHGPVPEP
T2 sequence (P22223 108-461): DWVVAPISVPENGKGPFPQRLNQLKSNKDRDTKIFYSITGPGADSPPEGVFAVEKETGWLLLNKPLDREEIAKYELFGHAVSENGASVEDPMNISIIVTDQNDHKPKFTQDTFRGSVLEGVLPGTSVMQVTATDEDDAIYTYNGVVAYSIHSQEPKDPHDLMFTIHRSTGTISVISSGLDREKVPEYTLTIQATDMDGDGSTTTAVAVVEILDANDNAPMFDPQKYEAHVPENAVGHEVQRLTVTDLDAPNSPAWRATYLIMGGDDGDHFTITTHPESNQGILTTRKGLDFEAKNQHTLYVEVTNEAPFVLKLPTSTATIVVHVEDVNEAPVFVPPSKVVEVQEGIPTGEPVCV

B1: W3195-1.53.1-p1-uIgG1L (antibody)
heavy: not shown
light: SYELTQPPSVSVSPGQTAQITCSGDKLGDKFASWYQQKSGQSPVVVIYQDNKRPSGFPERFSGSNSGNTATLTISGTQAMDEADYYCQAWDSSIVVFGGGTKLTVLGQPKAAPSVTLFPPSSEELQANKATLVCLISDFYPGAVTVAWKADSSPVKAGVETTTPSKQSNNKYAASSYLSLTPEQWKSHRSYSCQVTHEGSTVEKTVAPTECS
notes: also called W3195-p1 antibody
EC50 [1]: 0.1 nM | Max MFI [1]: 2290 | EC50 [2]: 0.15 nM | Max MFI [2]: 4080 | EC50 [3]: 0.22 nM | EC50 [4]: 0.08 nM | Max OD450 [4]: 2.83 | EC50 [5]: 0.087 nM | Max OD450 [5]: 2.88 | EC50 [6]: 0.14 nM | Max OD450 [6]: 2.88 | EC50 [7]: 0.19 nM | EC50 [8]: 0.2 nM
